In PMC8948245, “Mechanistic insights into the regulation of plant phosphate homeostasis by the rice SPX2 – PHR2 complex” (Nature Communications, 2022):
One block for each binder: values may come before it.

Legend:
[1] = target: the molecule itself; assay: cross-linking; about 30 μM purified SPX2/PHR2^225–362 complex with 200 μM M2M, room temperature, 30 min, 25 mM Tris–HCl pH 8.0, 150 mM NaCl, 1 mM InsP6; SDS-PAGE with or without 100 mM DTT
PHR2 MYB-CC K292D = PHR2 MYB-CC K292D (Oryza sativa, UniProt B8B5N8 225-362, K292D); assay: EMSA; EMSA: 10 nM FAM-DNA, 0.3375-0.8 uM PHR2, 25 mM Tris-HCl pH 8.0, 150 mM NaCl, 5 mM DTT, 10% glycerol, 200 ng/ml heparin, 4 C, 30 min; crystal: 13% PEG 3350, 0.1; details: protein: recombinant; tags: C-terminal 8xHis; chain copies: 2; blunt, 30 bp
[2] = target: T1, His-tagged PHR2^225–362 (rice PHR2, MYB domain and CC domain) (rice (Oryza sativa), UniProt Q6Z156 225-362); assay: AUC; sedimentation velocity of the purified SPX2/PHR2 complex, 25 mM Tris-HCl pH 8.0, 150 mM NaCl, 1 mM InsP6, 18 °C, 0.7 mg ml^-1; details: both partners purified
T1 construct: pET21b, C-terminal 8×His tag; codon-optimised synthetic cDNA; also called PHR2-His; source: E. coli BL21(DE3), co-expressed with SPX2; not shown: 8×His, C-terminal, kept

[3] = target: the molecule itself; assay: crystal structure; mH2A1.1^181–366-tagged SPX2^1-202/∆47-59 / InsP6 / PHR2^225–362 ternary complex, 10 mM InsP6 supplied, hanging drop, 18 °C, 3.1 Å
[4] = target: PHR2 MYB domain (crystal) (Oryza sativa, UniProt B8B5N8 180-313); assay: X-ray crystallography, 2.7 A; EMSA: 10 nM FAM-DNA, 0.3375-0.8 uM PHR2, 25 mM Tris-HCl pH 8.0, 150 mM NaCl, 5 mM DTT, 10% glycerol, 200 ng/ml heparin, 4 C, 30 min; crystal: 13% PEG 3350, 0.1; details: protein: recombinant; tags: C-terminal 8xHis (general PHR2 cloning); chain copies: 2; 5' overhang 1 nt on each strand, 15 bp
PHR2 MYB domain (crystal), sequence (B8B5N8 180-313): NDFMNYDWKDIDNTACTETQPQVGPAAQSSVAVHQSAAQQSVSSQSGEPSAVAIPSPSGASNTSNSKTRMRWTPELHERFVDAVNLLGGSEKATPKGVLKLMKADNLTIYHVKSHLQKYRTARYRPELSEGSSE

PHR2 MYB-CC K292D, sequence (B8B5N8 225-362 K292D): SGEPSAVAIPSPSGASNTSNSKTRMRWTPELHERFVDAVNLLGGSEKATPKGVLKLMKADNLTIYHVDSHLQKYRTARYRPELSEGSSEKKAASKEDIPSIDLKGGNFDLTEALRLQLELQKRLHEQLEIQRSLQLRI
T1 sequence (Q6Z156 225-362): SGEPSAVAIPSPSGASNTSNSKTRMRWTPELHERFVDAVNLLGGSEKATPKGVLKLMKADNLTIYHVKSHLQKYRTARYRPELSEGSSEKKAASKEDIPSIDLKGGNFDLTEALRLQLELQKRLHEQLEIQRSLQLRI

B1: SPX2^1-280_K106C (natural protein, rice (Oryza sativa), UniProt Q6Z784 1-280, looked up)
chain: MKFGKSLSSQIVEMQPEWRDNFLSYKDLKKRLNLISGGAAGERASKRRRVGGATAVTVTAAAAGGMTLEQAGFVGLLDAELDKFNFFFLEKEEEYVIKQKELRERCMASAEEVMRVRKEIVDLHGEMVLLENYSALNYTGLVKILKKYDKRTGSMIRLPFVQKVLQQPFFTTDLLYKLVKECEEMLDQLMPTNEHSVASEDGKDDSEGEEKGSKPSSSSSANGGAVPGEAEAEDERSTDMKSTVTAALRALREIRSGSSTVSVFSLPPLHGSNGQDEPGR
notes: rice (Oryza sativa) SPX2, residues 1-280, K106C; also called SPX2^K106C
binding result [1]: binds

B2: FAM P1BS EMSA probe (dsDNA)
DNA 1: AAGCTTGAATATGCAATGGAATATGCTTAG
DNA 2: CTAAGCATATTCCATTGCATATTCAAGCTT
binding result (PHR2 MYB-CC K292D): no binding

stoichiometry N [2]: 1 SPX2:PHR2 ratio (2:2)
B3: mH2A1.1^181–366-tagged SPX2^1-202/∆47-59 (domain or fragment, rice (Oryza sativa), UniProt Q6Z784 1-202, looked up)
chain: MKFGKSLSSQIVEMQPEWRDNFLSYKDLKKRLNLISGGAAGERASKAAAAGGMTLEQAGFVGLLDAELDKFNFFFLEKEEEYVIKQKELRERKMASAEEVMRVRKEIVDLHGEMVLLENYSALNYTGLVKILKKYDKRTGSMIRLPFVQKVLQQPFFTTDLLYKLVKECEEMLDQLMPTNEHSVASEDG
notes: rice (Oryza sativa) SPX2, residues 1-202 with residues 47-59 (R47-T59) deleted; also called crystallized construct
stoichiometry N [3]: 2

B4: P1BS crystal DNA (dsDNA)
DNA 1: GCTTGAGGATATCCGA
DNA 2: CTCGGATATCCTCAAG
binding result [4]: binds
